# B1: hLF: human lactoferrin (LF), 711 amino acids, SEQ ID NO:4; 70-80 kDa basic protein of the transferrin family (protein, listed as Homo sapiens)
# chain: MKLVFLVLLFLGALGLCLAGRRRRSVQWCAVSQPEATKCFQWQRNMRKVRGPPVSCIKRDSPIQCIQAIAENRADAVTLDGGFIYEAGLAPYKLRPVAAEVYGTERQPRTHYYAVAVVKKGGSFQLNELQGLKSCHTGLRRTAGWNVPIGTLRPFLNWTGPPEPIEAAVARFFSASCVPGADKGQFPNLCRLCAGTGENKCAFSSQEPYFSYSGAFKCLRDGAGDVAFIRESTVFEDLSDEAERDEYELLCPDNTRKPVDKFKDCHLARVPSHAVVARSVNGKEDAIWNLLRQAQEKFGKDKSPKFQLFGSPSGQKDLLFKDSAIGFSRVPPRIDSGLYLGSGYFTAIQNLRKSEEEVAARRARVVWCAVGEQELRKCNQWSGLSEGSVTCSSASTTEDCIALVLKGEADAMSLDEGYVYTAGKCGLVPVLAENYKSQQSSDPDPNCVDRPVEGYLAVAVVRRSDTSLTWNSVKGKKSCHTAVDRTAGWNIPMGLLFNQTGSCKFDEYFSQSCAPGSDPRSNLCALCIGDEQGENKCVPNSNERYYGYTGAFRCLAENAGDVAFVKDVTVLQNTDGNNNEAWAKDLKLADFALLCLDGKRKPVTEARSCHLAMAPNHAVVSRMDKVERLKQVLLHQQAKFGRNGSDCPDKFCLFQSETKNLLFNDNTECLARLHGKTTYEKYLGPQYVAGITNLKKCSTSPLLEACEFLRK
# B2: Recombinant lactoferrin: recombinant lactoferrin expressed or manufactured in other species, e.g., plant species such as rice (e.g., Ventria Bioscience) (protein, UniProt P02788 20-710, looked up)
# Lactotransferrin: GRRRSVQWCAVSQPEATKCFQWQRNMRKVRGPPVSCIKRDSPIQCIQAIAENRADAVTLDGGFIYEAGLAPYKLRPVAAEVYGTERQPRTHYYAVAVVKKGGSFQLNELQGLKSCHTGLRRTAGWNVPIGTLRPFLNWTGPPEPIEAAVARFFSASCVPGADKGQFPNLCRLCAGTGENKCAFSSQEPYFSYSGAFKCLRDGAGDVAFIRESTVFEDLSDEAERDEYELLCPDNTRKPVDKFKDCHLARVPSHAVVARSVNGKEDAIWNLLRQAQEKFGKDKSPKFQLFGSPSGQKDLLFKDSAIGFSRVPPRIDSGLYLGSGYFTAIQNLRKSEEEVAARRARVVWCAVGEQELRKCNQWSGLSEGSVTCSSASTTEDCIALVLKGEADAMSLDGGYVYTAGKCGLVPVLAENYKSQQSSDPDPNCVDRPVEGYLAVAVVRRSDTSLTWNSVKGKKSCHTAVDRTAGWNIPMGLLFNQTGSCKFDEYFSQSCAPGSDPRSNLCALCIGDEQGENKCVPNSNERYYGYTGAFRCLAENAGDVAFVKDVTVLQNTDGNNNEAWAKDLKLADFALLCLDGKRKPVTEARSCHLAMAPNHAVVSRMDKVERLKQVLLHQQAKFGRNGSDCPDKFCLFQSETKNLLFNDNTECLARLHGKTTYEKYLGPQYVAGITNLKKCSTSPLLEACEFLRK
# modifications: expressed in rice
# Key:
# [1] = tested on: SARS-CoV-2 pseudovirus; format: cell-based
# [2] = tested on: HSPG receptor; experiment: hLF cell membrane localization, confocal microscopy of VeroE6/T cells; format: cell-based, African green monkey; settings: 2.5 µM hLF, cells chilled at 4° C., anti-hLF staining
# Experimental: To visualize cell membrane localization of human lactoferrin (hLF), VeroE6/T cells (0.75×10^5 cells/well) were chilled at 4° C. for 1 hr, incubated with 2.5 µM of hLF. Cells were washed, fixed using 4% PFA (Invitrogen), stained with anti-hLF antibody, and fluorescent image was taken under confocal microscope (FIG. 10, middle row). Cell nuclei were visualized using DAPI (FIG. 10, bottom row). To visualize the cell surface and nuclei at the same time, the confocal images above (i.e., FIG. 10, middle and bottom rows) were merged and are presented in FIG. 10, top row. […] To see the effect of heparin on the binding of hLF to the cell surface (specifically the HSPG receptor), cells were co-incubated with hLF and heparin (H), and the confocal image was taken (FIG. 10, right column).
# [3] = tested on: SARS-CoV pseudovirus; format: cell-based
# [4] = target: ACE2 receptor (Homo sapiens, UniProt Q9BYF1); experiment: Effect on ACE2 receptor enzyme activity; format: biochemical; settings: binds away from the enzyme active site
# Description: The results were proven using a small molecule inhibitor. This type of fusion protein enables both lactoferrin to bind to the HSPG on the cell surface and the receptor binding site on the S protein to bind to the ACE2 receptor on the cell surface, thereby tying up both the receptor and co-receptor on the host cell and preventing entry of the virus into the cell. […] Thus, in some embodiments, a recombinant protein as described herein, wherein the receptor binding domain of the SARS-CoV-2 spike (S) protein is fused with lactoferrin, binds to the host cell surface receptors (e.g., ACE2 receptor and HSPG) and prevent binding of the SARS-CoV-2 virus from binding and entering the host cell. This approach is different from other studies in the art, in which recombinant proteins bind to the viral particles themselves to prevent attachment of the virus to the cell. The present disclosure rather discloses a recombinant protein that binds to the host cell and effectively ties up the cell surface receptors such that the virus particles can no longer bind and infect the cell.
# [5] = tested on: SARS-CoV pseudovirus; settings: cited from earlier work
# [6] = acidic pH conditions during inflammation; cited from earlier work
# ACE2 receptor, sequence (Q9BYF1 18-805): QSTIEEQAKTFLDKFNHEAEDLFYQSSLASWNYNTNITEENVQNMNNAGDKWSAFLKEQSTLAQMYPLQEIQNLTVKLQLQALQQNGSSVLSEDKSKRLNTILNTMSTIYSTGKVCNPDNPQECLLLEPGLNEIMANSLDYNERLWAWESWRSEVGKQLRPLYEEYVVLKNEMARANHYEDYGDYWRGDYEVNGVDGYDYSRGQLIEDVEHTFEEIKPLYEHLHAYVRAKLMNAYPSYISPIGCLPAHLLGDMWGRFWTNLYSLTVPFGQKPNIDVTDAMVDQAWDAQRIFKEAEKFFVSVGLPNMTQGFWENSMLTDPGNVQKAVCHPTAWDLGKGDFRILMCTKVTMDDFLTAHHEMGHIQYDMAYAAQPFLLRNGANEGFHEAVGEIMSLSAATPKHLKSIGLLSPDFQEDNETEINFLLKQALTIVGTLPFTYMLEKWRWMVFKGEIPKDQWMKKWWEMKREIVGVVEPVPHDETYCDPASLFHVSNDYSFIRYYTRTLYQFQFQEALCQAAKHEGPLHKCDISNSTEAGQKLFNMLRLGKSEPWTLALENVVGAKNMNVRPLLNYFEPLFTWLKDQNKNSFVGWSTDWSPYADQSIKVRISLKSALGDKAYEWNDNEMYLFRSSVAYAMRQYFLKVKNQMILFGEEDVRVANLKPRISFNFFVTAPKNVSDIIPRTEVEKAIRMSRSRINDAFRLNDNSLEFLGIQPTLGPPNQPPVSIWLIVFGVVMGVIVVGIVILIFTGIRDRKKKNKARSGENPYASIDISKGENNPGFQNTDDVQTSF
Molecule,inhibition of SARS-CoV-2 infection in target cells ([1]; VeroE6 or VeroE6/Tmprss2),entry of SARS-CoV-2 virus into cells ([1]; in vitro),binding to HSPG receptor on the cell membrane [2],entry of SARS-CoV virus into cells [3],effect on ACE2 receptor enzyme activity / cellular function [4],SARS pseudovirus entry [5],iron affinity relative to transferrin [6],anti-viral effective concentration range ([1]; virus not named)
B1,efficient inhibitor,prevent entry,binds the HSPG receptor on the cell membrane,prevent entry,does not interfere with ACE2 receptor activity,prevents SARS pseudovirus entry,30 times higher than transferrin,
B2,,,,,,,,effective in the low µM range

# From US20230331815A1 (priority 2020, published 2023)
